Data reported in US20220153822A1 (ALYTAS THERAPEUTICS, published 2022).
Positions count from the first letter of the chain named.

Target: T1, Perilipin epitope 6 peptide EVRVPWLHSLAAAQE (SEQ ID NO. 333) (human, Biotin-PEG Spacer and GGSGGS Linker (SEQ ID NO. 438) at the N-terminus, or Biotin-PEG Spacer and AAAAA Linker (SEQ ID NO. 439) at the C-terminus)
T1 construct: Two biotinylated variants were used for selection and ELISA; On the peptide array it stood without biotin; also called target peptide
T1 peptide: EVRVPWLHSLAAAQE
Test: phage display selection and ELISA on biotinylated target peptide

B1: Antibody No. 41 (antibody, V domains shown)
VH: QVQLVQSGGGVVQPGRSQRLSCAASGFTFSNAWMSWVRQAPGKGLEWVSAISGSGGSTYYADSVKGRFTISRDNSKNTLYLQMNSLRAEDTAVYYCAANEGGDAFDIWGQGTMVTVSS
VL: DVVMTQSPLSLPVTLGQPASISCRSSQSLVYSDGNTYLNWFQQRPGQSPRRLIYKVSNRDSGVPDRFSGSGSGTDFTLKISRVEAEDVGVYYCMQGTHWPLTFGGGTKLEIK
notes: human IgG1, lambda or kappa light chain; also called 447-E10
binding result: binds

B2: Antibody No. 39 (antibody, V domains shown)
VH: QVQLVESGGGLVQPGRSLRLSCAASGFTFDDYAMHWVRQAPGKGLEWVSGISWNSGSIGYADSVKGRFTISRDNAKNSLYLQMNSLRAEDTALYYCAKDTTWGGSYPYFDYWGQGTLVTVSS
VL: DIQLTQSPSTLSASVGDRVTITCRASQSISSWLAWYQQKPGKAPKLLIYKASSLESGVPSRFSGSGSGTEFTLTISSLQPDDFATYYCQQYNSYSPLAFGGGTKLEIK
notes: human IgG1, lambda or kappa light chain; also called 448-H05
binding result: binds

B3: Antibody No. 46 (antibody, V domains shown)
VH: QVQLVQSGGGVVQPGRSLRLSCAASGFTFSSYAMHWVRQAPGKGLEWVAVISYDGSNKYYADSVKGRFTISRDNSKNTLYLQMNSLRAEDTAVYYCARDQYDILTGYGGTALDYWGQGTLVTVSS
VL: QSALTQPPSASGSPGQSVTISCTGTSSDVGGYNYVSWYQQHPGEAPKLMIYEVSKRPSGVPDRFSGSKSGNTASLTVSGLQAEDEADYYCSSYAGSNNLVFGGGTKLTVL
notes: human IgG1, lambda or kappa light chain; also called 447-B07
binding result: binds

B4: Antibody No. 42 (antibody, V domains shown)
VH: QVQLVESGGGVVQPGRSLRLSCAASGFTFSNYAMHWVRQAPGKGLEWVAVISYDGSKKYYADSVKGRFTISRDNSKNTLYLQMNSLGAEDMAVYYCAREDPRRGGIDYWGQGTLVTVSS
VL: QSVLTQPPPVSGAPGQRVTISCTGSSSNIGAGYDVHWYQQLPGTAPKLLIYGNSNRPSGVPDRFSGSKSGTSASLAITGLQAEDEADYYCQSYDSSLSGYVFGTGTKVTVL
notes: human IgG1, lambda or kappa light chain; also called 447-B06
binding result: binds

B5: Antibody No. 47 (antibody, V domains shown)
VH: QVQLVQSGGGVVQPGRSLRLSCAASGFTFSSYAMHWVRQAPGKGLEWVAVISYDGSNKYYADSVKGRFTISRDNSKNTLYLQMNSLRAEDTAVYYCAREAGEGVDYWGQGTLVTVSS
VL: B4 VL with P9S, V108L
notes: human IgG1, lambda or kappa light chain; also called 447-A08
binding result: binds

B6: Antibody No. 45 (antibody, V domains shown)
VH: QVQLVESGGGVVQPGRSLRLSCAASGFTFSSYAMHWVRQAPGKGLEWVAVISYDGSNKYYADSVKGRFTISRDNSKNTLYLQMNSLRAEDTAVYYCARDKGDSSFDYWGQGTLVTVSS
VL: B4 VL with P9S, Y100V, T104G
notes: human IgG1, lambda or kappa light chain; also called 447-E08
binding result: binds

B7: Antibody No. 48 (antibody, V domains shown)
VH: EVQLVQSGGGVVQPGRSLRLSCAASGFTFSSYAMHWVRQAPGKGLEWVAVISYDGSNKYYADSVKGRFTISRDNSKNTLYLQMNSLRAEDTAVYYCAAESAYSSSWSGLRFDPWGQGTLVTVSS
VL: B4 VL with P9S, V108L
notes: human IgG1, lambda or kappa light chain; also called 447-B08
binding result: binds

B8: Antibody No. 43 (antibody, V domains shown)
V domain 1: QVQLVQSGAEVKKPGSSVKVSCKASGGTFSSYAISWVRQAPGQGLEWMGGIIPIFGTANYAQKSQGRVTITADESTSTAYMELSSLRSEDTAVYYCARESGSGNRIPYGMDVWGQGTMVTVSS
V domain 2: QSVLTQPPSVSGAPGQRVTISCTGSSSNIGAGYDVHWYQQLPGTAPKLLIYGNSNRPSGVPDRFSGSKSGTSASLAITGLQAEDEADYYCQSYDSSLSGPVVFGGGTQVTVL
notes: human IgG1, lambda or kappa light chain; also called 447-A07
binding result: binds

B9: Antibody No. 40 (antibody, V domains shown)
VH: EVQLLESGGGLVKPGGSLRLSCAASGFTFSDYYMSWIRQAPGKGLEWVSYISSSSSYTNYADSVKGRFTISRDNAKNSLYLQMNSLRAEDTAVYYCARLSTVTRAFDIWGQGTMVTVSS
VL: DIQLTQSPSSVSASVGDRVTITCRASQGISSWLAWYQQKPGKAPKLLIYAASSLQSGVPSRFSGSGSGTDFTLTISSLQPEDFATYYCQQANSFPPTFGQGTKLEIK
notes: human IgG1, lambda or kappa light chain; also called 447-F11
binding result: binds

B10: Antibody No. 49 (antibody, V domains shown)
VH: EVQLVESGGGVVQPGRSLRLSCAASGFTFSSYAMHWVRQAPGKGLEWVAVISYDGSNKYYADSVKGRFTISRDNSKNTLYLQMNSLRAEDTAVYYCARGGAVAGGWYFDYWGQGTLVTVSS
VL: B9 VL with Q3V, L4M
notes: human IgG1, lambda or kappa light chain; also called 448-H04
binding result: binds
